Data reported in PMC3876883.

How the values were obtained:
Assay in all cases: single-particle photobleaching
[1] = molecular target: K2P3–WT, tandem subunit of K2P3 and wild-type K2P1 (human) (UniProt O14649)
[2] = molecular target: K2P9–WT, tandem subunit of K2P9 and wild-type K2P1 (human) (UniProt Q9NPC2)
[3] = molecular target: WT–K2P3, tandem subunit of wild-type K2P1 and K2P3 (human) (UniProt O00180)
[4] = molecular target: WT–K2P9, tandem subunit of wild-type K2P1 and K2P9 (human) (UniProt O00180)

Chain of UniProt Q9NPC2 (Q9NPC2 whole entry, looked up, tested part not stated): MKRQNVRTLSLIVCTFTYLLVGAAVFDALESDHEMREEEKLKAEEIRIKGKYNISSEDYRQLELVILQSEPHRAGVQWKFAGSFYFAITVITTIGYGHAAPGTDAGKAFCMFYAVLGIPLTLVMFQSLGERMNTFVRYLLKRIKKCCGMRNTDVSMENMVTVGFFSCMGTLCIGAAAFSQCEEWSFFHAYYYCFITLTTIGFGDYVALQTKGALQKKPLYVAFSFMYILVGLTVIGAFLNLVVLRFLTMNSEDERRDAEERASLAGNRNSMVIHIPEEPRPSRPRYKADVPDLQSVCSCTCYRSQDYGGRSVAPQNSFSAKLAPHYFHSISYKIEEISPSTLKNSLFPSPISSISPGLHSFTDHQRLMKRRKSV
Chain of UniProt O14649 (O14649 whole entry, looked up, tested part not stated): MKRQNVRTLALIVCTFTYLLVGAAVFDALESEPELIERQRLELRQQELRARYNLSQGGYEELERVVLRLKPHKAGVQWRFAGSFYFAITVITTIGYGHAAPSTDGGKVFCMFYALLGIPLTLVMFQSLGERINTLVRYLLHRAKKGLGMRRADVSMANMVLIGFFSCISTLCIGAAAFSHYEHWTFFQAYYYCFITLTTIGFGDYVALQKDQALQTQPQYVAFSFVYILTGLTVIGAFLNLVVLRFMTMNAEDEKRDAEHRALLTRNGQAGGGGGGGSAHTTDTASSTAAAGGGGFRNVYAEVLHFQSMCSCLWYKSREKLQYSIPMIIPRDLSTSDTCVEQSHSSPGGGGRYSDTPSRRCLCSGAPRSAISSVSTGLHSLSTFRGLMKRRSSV

GFP-SUMO1 (from UniProt P63165 1-97) (natural protein)
1: stoichiometry N (SUMO1 per channel) [1] | stoichiometry N (SUMO1 per channel) [2] | stoichiometry N (bleaching step per particle) [3] | stoichiometry N (bleaching step per particle) [4]
